Laboratory results: patent US20200317768A1 (published 2020)
Positions count from the first letter of the chain named.

What was measured:
[1] = target: T1, cynomolgus monkey FcγRIIa3 extracellular domain, C-terminal His-tag (cynomolgus monkey); assay: SPR (Biacore), KD of SG1 / KD of variant;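 further: relative to parent M103205H795-SG1 carrying the SG1 human heavy chain constant region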
T1 construct: also called cyno FcγRIIa3; cynoFcgRIIa3; not shown: His-tag added to C-terminus
T1 chain: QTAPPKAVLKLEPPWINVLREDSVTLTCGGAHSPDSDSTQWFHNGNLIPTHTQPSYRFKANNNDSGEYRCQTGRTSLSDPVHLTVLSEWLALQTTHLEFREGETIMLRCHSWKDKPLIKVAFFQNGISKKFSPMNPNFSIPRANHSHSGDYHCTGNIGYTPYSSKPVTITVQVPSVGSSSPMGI
Procedure: (§1) The kinetic analysis of interactions between these antibodies and FcγR was carried out using BIACORE® T200 or BIACORE® 4000 (GE Healthcare). HBS-EP+ (GE Healthcare) was used as the running buffer, and the measurement temperature was set to 25° C. A chip produced by immobilizing Protein A. Protein A/G or mouse anti-human IgG kappa light chain (BD Biosciences) onto a Series S Sensor Chip CM4 or CM5 (GE Healthcare) by the amine-coupling method was used. […] After the measurement, the antibody captured on the chip was washed off by allowing reaction with 10 mM glycine-HCl, pH1.5 and 25 mM NaOH so that the chip was regenerated and used repeatedly. The sensorgrams obtained as measurement results were analyzed by the 1:1 Langmuir binding model using the BIACORE® Evaluation Software to calculate the binding rate constant ka (L/mol/s) and dissociation rate constant kd (l/s), and the dissociation constant KD (mol/L) was calculated from these values. […] Regarding such interactions, KD values were calculated using the following 1:1 binding model described in BIACORE® T100 Software Handbook BR1006-48 Edition AE.
(§2) The behavior of interacting molecules according to the 1:1 binding model on BIACORE® can be described by Equation 1: Req=C·R max/(KD+C)+RI, wherein, Req is a plot of steady-state binding levels to analyte concentration. C is concentration, RI is bulk refractive index contribution in the sample, and Rmax is analyte binding capacity of the surface. When this equation is rearranged, KD can be expressed as Equation 2: KD=C·Rmax/(Req−RI)−C. KD can be calculated by substituting the values of Rmax, RI, and C into Equation 1 or Equation 2. From the current measurement conditions, RI=0, C=2 μmol/L can be used.

[2] = target: T2, cynomolgus monkey FcγRIIa1 extracellular domain, C-terminal His-tag (cynomolgus monkey); assay: SPR (Biacore), KD of SG1 / KD of variant;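 further: relative to parent M103205H795-SG1 carrying the SG1 human heavy chain constant region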
T2 construct: also called cyno FcγRIIa1; cynoFcgRIIa1; not shown: His-tag added to C-terminus
T2 chain: T1 chain with T95P, A121T, S128A, P133H, N135D
Procedure: as §1, §2

[3] = target: T3, human FcγRIIIaV extracellular domain, C-terminal His-tag (human, UniProt P08637 17-208); assay: SPR (Biacore), KD of SG1 / KD of variant;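 further: relative to parent M103205H795-SG1 carrying the SG1 human heavy chain constant region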
T3 construct: also called FcgRIIIaV; not shown: His-tag added to C-terminus
T3 sequence (P08637 17-208 F176V): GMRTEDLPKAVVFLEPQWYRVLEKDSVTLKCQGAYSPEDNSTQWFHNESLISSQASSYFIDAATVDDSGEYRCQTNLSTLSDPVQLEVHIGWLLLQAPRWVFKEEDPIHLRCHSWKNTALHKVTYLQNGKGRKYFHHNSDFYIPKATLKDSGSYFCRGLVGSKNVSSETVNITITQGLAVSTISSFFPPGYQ
Procedure: as §1, §2

[4] = target: T4, human FcγRIIaR extracellular domain, C-terminal His-tag (human, UniProt P12318 34-217); assay: SPR (Biacore), KD of SG1 / KD of variant;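 further: relative to parent M103205H795-SG1 carrying the SG1 human heavy chain constant region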
T4 construct: also called human FcγRIIa (type R); FcgRIIaR; not shown: His-tag added to C-terminus
T4 chain: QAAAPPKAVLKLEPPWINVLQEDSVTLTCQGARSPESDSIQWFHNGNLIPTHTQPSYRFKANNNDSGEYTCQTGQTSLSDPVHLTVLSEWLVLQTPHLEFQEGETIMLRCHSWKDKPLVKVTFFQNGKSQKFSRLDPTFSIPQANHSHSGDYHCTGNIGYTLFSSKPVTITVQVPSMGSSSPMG
Procedure: as §1, §2

[5] = target: T5, cynomolgus monkey FcγRIIIaS extracellular domain, C-terminal His-tag (cynomolgus monkey, UniProt A3RFZ7 21-206 (rhesus entry)); assay: SPR (Biacore), KD of SG1 / KD of variant
T5 construct: also called cyno FcγRIIIaS; cynoFcγRIIIaS; not shown: His-tag added to C-terminus
T5 sequence (A3RFZ7 21-206): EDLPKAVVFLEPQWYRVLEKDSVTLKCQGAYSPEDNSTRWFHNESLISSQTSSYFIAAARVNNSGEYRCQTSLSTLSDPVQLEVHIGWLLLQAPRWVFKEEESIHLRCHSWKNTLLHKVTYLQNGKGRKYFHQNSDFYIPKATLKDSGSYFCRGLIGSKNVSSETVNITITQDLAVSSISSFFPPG
Procedure: as §1, §2

[6] = target: T6, cynomolgus monkey FcγRIIa2 extracellular domain, C-terminal His-tag (cynomolgus monkey); assay: SPR (Biacore), KD of SG1 / KD of variant
T6 construct: also called cyno FcγRIIa2; cynoFcgRIIa2; not shown: His-tag added to C-terminus
T6 chain: T1 chain with I127K, K130N, P133H, R142Q
Procedure: as §1, §2

[7] = target: T7, human FcγRIIb extracellular domain, C-terminal His-tag (human, UniProt P31994 43-217); assay: SPR (Biacore), KD of SG1 / KD of variant
T7 construct: also called FcgRIIb (human); not shown: His-tag added to C-terminus
T7 sequence: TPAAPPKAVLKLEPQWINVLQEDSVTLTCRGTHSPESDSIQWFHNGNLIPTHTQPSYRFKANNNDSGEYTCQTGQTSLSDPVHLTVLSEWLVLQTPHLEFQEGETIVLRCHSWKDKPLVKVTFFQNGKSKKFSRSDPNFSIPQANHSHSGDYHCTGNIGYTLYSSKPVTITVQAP
Procedure: as §1, §2

[8] = target: T8, human FcγRIIaH extracellular domain, C-terminal His-tag (human, UniProt P12318 34-217); assay: SPR (Biacore), KD of SG1 / KD of variant
T8 construct: also called human FcγRIIa (type H); FcgRIIaH; not shown: His-tag added to C-terminus
T8 sequence: T4 chain with R134H
Procedure: as §1, §2

[9] = target: T1, cynomolgus monkey FcγRIIa3 …; assay: SPR (Biacore), antibody captured, FcgR analyte, 25 C
Procedure: as §1, §2

[10] = target: T2, cynomolgus monkey FcγRIIa1 …; assay: as above
Procedure: as §1, §2

[11] = target: T3, human FcγRIIIaV extracellular domain, …; assay: as above
Procedure: as §1, §2

[12] = target: T4, human FcγRIIaR extracellular domain, …; assay: as above
Procedure: as §1, §2

[13] = target: T5, cynomolgus monkey FcγRIIIaS …; assay: as above
Procedure: as §1, §2

[14] = target: T7, human FcγRIIb extracellular domain, …; assay: as above
Procedure: as §1, §2

[15] = target: T8, human FcγRIIaH extracellular domain, …; assay: as above
Procedure: as §1, §2

- KD fold (SG1 = 1) [1]: 0.6 fold
- KD fold (SG1 = 1) [2]: 0.6 fold
- KD fold (SG1 = 1) [3]: 0.05 fold
- KD fold (SG1 = 1) [4]: 1.1 fold
- KD fold (SG1 = 1) [5]: 0.15 fold
- KD fold (SG1 = 1) [6]: 0.6 fold
- KD fold (SG1 = 1) [7]: 1.2 fold
- KD fold (SG1 = 1) [8]: 1.6 fold
- Kd [9]: 22 µM
- Kd [10]: 5.1 µM
- Kd [11]: 17 µM
- Kd [12]: 1100 nM
- Kd [13]: 2400 nM
- Kd [14]: 4 µM
- Kd [15]: 440 nM
B1: M103205H795-MY316/M103202L889-SK1 (antibody, human IgG1, kappa)
heavy: QVTLKESGPVLVKPTETLTLTCTVSGIDLSHDDISWVRQAPGKGLEWVGIISYAGSTYYASWAKGRLTISKDTSKNQVVLTMTNMDPVDTATYYCARGVPAYSHGGDLWGQGTLVTVSSASTKGPSVFPLAPSSKSTSGGTAALGCLVKDYFPEPVTVSWNSGALTSGVHTFPAVLQSSGLYSLSSVVTVPSSSLGTQTYICNVNHKPSNTKVDKKVEPKSCDKTHTCPPCPAPELLLGPSVFLFPPKPKDTLMISRTPEVTCVVVDVSEEDPEVKFNWYVDGVEVHNAKTKPREELYNSTYRVVSVLTVLHQDWLNGKEYKCKVSNKALPKPIEKTISKAKGQPREPQVYTLPPSREEMTKNQVSLTCLVKGFYPSDIAVEWESNGQPENNYKTTPKVLDSDGSFFLYSKLTVDKSRWQQGNVFSCSVMHEALHNHYTQKSLSLSP
light: DIVMTQSPATLSLSPGERATLSCTSSQSVYHANWLSWFQQKPGQPPKLLIYWASTLAYGVPSRFSGSGSGTDFTLTISSLQPEDAATYYCAGGYGGGRYAFGQGTKVEIKRTVAAPSVFIFPPSDEQLKSGTASVVCLLNNFYPREAKVQWKVDNALQSGNSQESVTEQDSKDSTYSLSSTLTLSKADYEKHKVYACEVTHQGLSSPVTKSFNRGEC
